The results in this text go back to patent US20120183532A1.

In the assay the target is IL-1β receptor of the hepatic sinusoidal endothelium (HSE) cells (mouse) (UniProt P13504). Nature of the assay: cell-based or functional assay.
UniProt P13504, sequence (P13504 20-576): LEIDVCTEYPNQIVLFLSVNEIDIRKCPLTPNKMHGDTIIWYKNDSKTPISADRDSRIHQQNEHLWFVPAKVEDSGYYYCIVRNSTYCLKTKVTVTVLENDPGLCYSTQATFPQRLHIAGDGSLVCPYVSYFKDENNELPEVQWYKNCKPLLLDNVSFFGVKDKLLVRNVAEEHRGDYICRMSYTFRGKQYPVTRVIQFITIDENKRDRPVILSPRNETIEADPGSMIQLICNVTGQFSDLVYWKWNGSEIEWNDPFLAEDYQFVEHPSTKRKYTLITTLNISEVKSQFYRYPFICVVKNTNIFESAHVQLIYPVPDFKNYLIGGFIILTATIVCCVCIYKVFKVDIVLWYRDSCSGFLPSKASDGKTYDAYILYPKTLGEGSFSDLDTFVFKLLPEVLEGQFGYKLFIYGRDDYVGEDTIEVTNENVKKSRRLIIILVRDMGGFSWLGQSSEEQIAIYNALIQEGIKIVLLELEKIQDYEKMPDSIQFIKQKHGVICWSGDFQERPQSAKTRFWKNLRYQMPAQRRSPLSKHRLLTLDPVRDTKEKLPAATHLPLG

Turning to “recombinant C. albicans Kre9 (CaKre9) protein expressed in E. coli, fused to an HSV tag and 6 histidine residues (from UniProt O74226 22-271)”, the increase of the tumor adhesion (B16M cells) to the HSE with respect to the control is greater than 150%.
